The data set “crystal structure” deals with the molecule itself. Briefly: crystal structure.
Substrate in data set [1]: O=C(O)C(=O)Cc1ccccc1
Briefly: purified protein. Particulars: 0.4 mM NADPH, 150 mM NaCl, 150 mM Tris-HCl pH 7.5, 25 °C. It is filed as biochemical, Sinorhizobium meliloti.

Substrate in data set [2]: O=C(O)C(=O)[C@@H](O)[C@H](O)[C@H](O)CO
The data set can be described thus: purified protein. It is filed as biochemical, Sinorhizobium meliloti. Particulars: 0.4 mM NADPH, 150 mM NaCl, 150 mM Tris-HCl pH 7.5, 25 °C.

Substrate in data set [3]: O=C(O)C(=O)CO
The data set can be described thus: purified protein. Format: biochemical, Sinorhizobium meliloti. Particulars: 0.4 mM NADPH, 150 mM NaCl, 150 mM Tris-HCl pH 7.5, 25 °C.

Substrate in data set [4]: CC(=O)C(=O)O
The data set can be described thus: purified protein. The conditions noted are these: 0.4 mM NADPH, 150 mM NaCl, 150 mM Tris-HCl pH 7.5, 25 °C. It is filed as biochemical, Sinorhizobium meliloti.

Data on two proteins can be found in publication PMC6469932 (Biochemistry, 2018).

What is called stoichiometry N is the number of molecules, sites or subunits per partner or assembly. The kcat/Km is the second-order rate constant that governs catalysis at low substrate concentration.

B1: SmGhrB, glyoxylate/hydroxypyruvate reductase of subfamily GHRB from Sinorhizobium meliloti 1021 (enzyme, UniProt Q92LZ4 1-322, looked up)
chain: MSRPRILVPGKINPRVLERLPEMFETVRIERADAALVTADMRDVSGIAVSGKLPVPLMDAFPSLEIVANFGVGYDGVDVSRAAARGIVVTNTPDVLTEEVADTAIGLLLNTLRLLPQAEQWLRQGRWVREGAFPLSPLSLRGRTVGLFGLGRIGLAIARRLEAFGVSIAYHTRTPREGLGFTYHPTLVGMAEAVDTLIVIVPGTASTLKAVNADVLSALGPKGVLINVGRGSTVDEAALVTALQNGTIAGAGLDVFENEPNVPEALLSFPNVSLLPHVASASVVTRNAMSDLVVDNLKAWFSTGEALTPVAETPFRRRAIQN
Take B1: in the data set “crystal structure”, the “stoichiometry N” value is 2. For the same protein, the K0.5 came to 5.59 ± 0.92 mM in “purified protein [1]” and 11.0 ± 2.0 mM in “purified protein [2]”. The kcat/Km in the data set “purified protein [1]” is 372 ± 38 M⁻¹ s⁻¹; in “purified protein [2]”, 935 ± 84 M⁻¹ s⁻¹.

B2: SmGhrA, glyoxylate/hydroxypyruvate reductase of subfamily GHRA from Sinorhizobium meliloti 1021 (enzyme, UniProt Q92T34 1-319, looked up)
chain: MPAKSPVIVDLKFIPEEVEAALAGAFPGREVIDLADPAHQERDLSGIDYAVVWKSAPDLFSRAPDLKVVFSGGAGVDHVLTLPGLPDVPLVRFVDRTLTTRMSEWVMMQCLLHLRQHRAYEALAKKHEWRDLSQPEAADVTVGIMGMGVLGQDAARKLAAMGFKVIGWSRSKRVIEGVETYDAAGLDAFLGRTDFLVGLLPLTPDTRGIFNAALFAKLSRNGPFGAPVFINAGRGGSQVEADILECLDSGVLGGASLDVFEREPLSPESRFWDMPNVYVTPHVAASSDVRALFVHVEHQIARFESGLPLEHVVDKVAGY
Take B2: the “stoichiometry N” value in “crystal structure” turned out to be 2. Further, the values for the K0.5 in “purified protein [1]”, in “purified protein [3]” and in “purified protein [4]” were 6.58 ± 0.73 mM, 9.35 ± 0.86 mM and 9.69 ± 0.80 mM, respectively. Moreover, the kcat/Km in “purified protein [1]” was found to be 267 ± 18 M⁻¹ s⁻¹; in “purified protein [3]”, 1200 ± 61 M⁻¹ s⁻¹; in the data set “purified protein [4]”, 57.3 ± 3.4 M⁻¹ s⁻¹.
